Values of other authors, collected in article PMC5021969.

Molecular target: CXCL1 (Mus musculus) (UniProt P12850)

For CXCL1 (from UniProt P12850), the Kd is listed as 10 µM.
